Source: patent US20220306765A1 (SUZHOU TRANSCENTA THERAPEUTICS, published 2022)
Where two headings read alike, the source gives them in different places.

What was measured:
[1] = biological target: T1, human CLDN18.1 (human, UniProt P56856 1-261); assay: FACS, HEK293-CLDN18.1 cells
T1 construct: on HEK293-CLDN18.1 cells; also called Claudin-18 splice variant 1; NP_057453.1

[2] = biological target: T2, human CLDN18.2 (human); assay: FACS, HEK293-CLDN18.2 cells
T2 construct: also called hCLDN18.2; Claudin-18 splice variant 2

[3] = biological target: T3, human CLDN18.2-mRFP1, wild-type (human); assay: FACS, transfected HEK293, 10 µg/ml antibody
T3 construct: human CLDN18.2 (amino acid 1-261) fused to mRFP1 (amino acid 1-225), transiently expressed in HEK293 cells; also called wild-type human CLDN18.2-mRFP

[4] = biological target: human CLDN18.2-mRFP Q29M (human); assay: FACS, transfected HEK293, 10 µg/ml antibody;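 note: antibody binding read by flow cytometry with a FITC-labelled anti-human IgG secondary, gated on RFP-positive cells, each mutant signal expressed against wild-type CLDN18.2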
[5] = biological target: human CLDN18.2-mRFP N37D (human); assay: FACS, transfected HEK293, 10 µg/ml antibody;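 note: antibody binding read by flow cytometry with a FITC-labelled anti-human IgG secondary, gated on RFP-positive cells, each mutant signal expressed against wild-type CLDN18.2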
[6] = biological target: human CLDN18.2-mRFP A42S (human); assay: FACS, transfected HEK293, 10 µg/ml antibody;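 note: antibody binding read by flow cytometry with a FITC-labelled anti-human IgG secondary, gated on RFP-positive cells, each mutant signal expressed against wild-type CLDN18.2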
[7] = biological target: human CLDN18.2-mRFP N45Q (human); assay: FACS, transfected HEK293, 10 µg/ml antibody;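 note: antibody binding read by flow cytometry with a FITC-labelled anti-human IgG secondary, gated on RFP-positive cells, each mutant signal expressed against wild-type CLDN18.2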
[8] = biological target: human CLDN18.2-mRFP Q47E (human); assay: FACS, transfected HEK293, 10 µg/ml antibody
[9] = biological target: human CLDN18.2-mRFP E56Q (human); assay: FACS, transfected HEK293, 10 µg/ml antibody
[10] = biological target: human CLDN18.2-mRFP G65P (human); assay: FACS, transfected HEK293, 10 µg/ml antibody
[11] = biological target: human CLDN18.2-mRFP L69I (human); assay: FACS, transfected HEK293, 10 µg/ml antibody
[12] = biological target: T3, human CLDN18.2-mRFP1, wild-type; assay: FACS, transfected HEK293, 10 µg/ml antibody; remark: listed apart in the source
Method: (§1) The transfected HEK293-CLDN18.2 or HEK293-CLDN18.1 cell were resuspended in PBS with 2% BSA at density of 10\hat{ }5/well, 100 μl/well. […] Next, cells were washed 3 times by FACS washing buffer and incubated with 100 μl/well goat anti-hIgG (H+L)-FITC (1:200 dilution) at 4° C. for another 30 min. Finally, cells were washed 3 times by FACS washing buffer and analyzed by Flow Cytometry. To analyze binding to CLDN18.2 transfected cells, the RFP positive cells were used for control gating.
(§2) Subsequently, these plasmids of mutants and wild-type CLDN18.2-mRFP were transfected into HEK293 cell.

[13] = biological target: human CLDN18.2-mRFP Q29A (human); assay: FACS, transfected HEK293, 10 µg/ml antibody;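 note: antibody binding detected by flow cytometry with FITC-labelled anti-human IgG secondary, gated on RFP-positive cells, mutant signal relative to wild-type CLDN18.2-mRFP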
Method: as §1, §2

[14] = biological target: human CLDN18.2-mRFP L35A (human); assay: FACS, transfected HEK293, 10 µg/ml antibody;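 note: antibody binding detected by flow cytometry with FITC-labelled anti-human IgG secondary, gated on RFP-positive cells, mutant signal relative to wild-type CLDN18.2-mRFP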
Method: as §1, §2

[15] = biological target: human CLDN18.2-mRFP N45A (human); assay: FACS, transfected HEK293, 10 µg/ml antibody;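 note: antibody binding detected by flow cytometry with FITC-labelled anti-human IgG secondary, gated on RFP-positive cells, mutant signal relative to wild-type CLDN18.2-mRFP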
Method: as §1, §2

[16] = biological target: human CLDN18.2-mRFP S52A (human); assay: FACS, transfected HEK293, 10 µg/ml antibody;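 note: antibody binding detected by flow cytometry with FITC-labelled anti-human IgG secondary, gated on RFP-positive cells, mutant signal relative to wild-type CLDN18.2-mRFP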
Method: as §1, §2

[17] = biological target: human CLDN18.2-mRFP M75A (human); assay: FACS, transfected HEK293, 10 µg/ml antibody
Sequence of human CLDN18.2-mRFP M75A (human) (chain, as listed by the source M75A M75A limits assumed): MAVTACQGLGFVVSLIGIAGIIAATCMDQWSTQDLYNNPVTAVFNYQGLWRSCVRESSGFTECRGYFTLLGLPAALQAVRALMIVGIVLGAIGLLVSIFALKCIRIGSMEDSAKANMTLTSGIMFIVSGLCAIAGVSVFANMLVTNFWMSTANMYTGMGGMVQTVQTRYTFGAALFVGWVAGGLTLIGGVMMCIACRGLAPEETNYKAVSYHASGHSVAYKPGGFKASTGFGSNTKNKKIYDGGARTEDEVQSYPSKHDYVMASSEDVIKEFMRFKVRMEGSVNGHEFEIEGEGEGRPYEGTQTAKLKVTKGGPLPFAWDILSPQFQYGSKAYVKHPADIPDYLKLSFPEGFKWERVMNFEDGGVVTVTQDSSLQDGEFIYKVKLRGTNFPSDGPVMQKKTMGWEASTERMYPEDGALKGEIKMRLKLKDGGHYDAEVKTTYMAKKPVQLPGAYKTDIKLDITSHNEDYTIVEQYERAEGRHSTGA
Method: as §1, §2

Sequence of human CLDN18.2-mRFP N37D (human) (chain, as listed by the source N37D N37D limits assumed): as the sequence (chain, as listed by the source M75A M75A limits assumed) above, with N37D, A75M counted along it
Sequence of human CLDN18.2-mRFP L35A (human) (chain, as listed by the source L35A L35A limits assumed): as the sequence (chain, as listed by the source M75A M75A limits assumed) above, with L35A, A75M counted along it
Sequence of human CLDN18.2-mRFP S52A (human) (chain, as listed by the source S52A S52A limits assumed): as the sequence (chain, as listed by the source M75A M75A limits assumed) above, with S52A, A75M counted along it
Sequence of human CLDN18.2-mRFP E56Q (human) (chain, as listed by the source E56Q E56Q limits assumed): as the sequence (chain, as listed by the source M75A M75A limits assumed) above, with E56Q, A75M counted along it
Sequence of human CLDN18.2-mRFP L69I (human) (chain, as listed by the source L69I L69I limits assumed): as the sequence (chain, as listed by the source M75A M75A limits assumed) above, with L69I, A75M counted along it
Sequence of human CLDN18.2-mRFP Q47E (human) (chain, as listed by the source Q47E Q47E limits assumed): as the sequence (chain, as listed by the source M75A M75A limits assumed) above, with Q47E, A75M counted along it
T1 sequence (P56856 whole entry, canonical isoform): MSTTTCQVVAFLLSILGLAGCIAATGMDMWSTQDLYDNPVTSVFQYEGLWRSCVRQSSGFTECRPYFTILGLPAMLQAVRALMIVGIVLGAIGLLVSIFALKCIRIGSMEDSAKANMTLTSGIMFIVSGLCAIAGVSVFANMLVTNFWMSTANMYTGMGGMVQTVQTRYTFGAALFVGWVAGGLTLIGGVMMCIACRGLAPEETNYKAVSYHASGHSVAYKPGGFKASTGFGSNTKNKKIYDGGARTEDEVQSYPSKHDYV
Sequence of human CLDN18.2-mRFP N45A (human) (chain, as listed by the source N45A N45A limits assumed): as the sequence (chain, as listed by the source M75A M75A limits assumed) above, with N45A, A75M counted along it
Sequence of human CLDN18.2-mRFP N45Q (human) (chain, as listed by the source N45Q N45Q limits assumed): as the sequence (chain, as listed by the source M75A M75A limits assumed) above, with N45Q, A75M counted along it
Sequence of human CLDN18.2-mRFP G65P (human) (chain, as listed by the source G65P G65P limits assumed): as the sequence (chain, as listed by the source M75A M75A limits assumed) above, with G65P, A75M counted along it
Sequence of human CLDN18.2-mRFP Q29A (human) (chain, as listed by the source Q29A Q29A limits assumed): as the sequence (chain, as listed by the source M75A M75A limits assumed) above, with Q29A, A75M counted along it
Sequence of human CLDN18.2-mRFP Q29M (human) (chain, as listed by the source Q29M Q29M limits assumed): as the sequence (chain, as listed by the source M75A M75A limits assumed) above, with Q29M, A75M counted along it
Sequence of human CLDN18.2-mRFP A42S (human) (chain, as listed by the source A42S A42S limits assumed): as the sequence (chain, as listed by the source M75A M75A limits assumed) above, with A42S, A75M counted along it

B1: 59A9-C (antibody, human IgG1, V domains shown)
VH: QITQKESGPGILQPSQTLSLTCSLSGFSLSTYFIGVGWIRQPSGKGLEWLAHIWWNDNKYYNTALKSRLTISKDTSNNQVFLKIASVDTADTATYYCARMGSGAWFTYWGQGTLVTVSA
VL: DIVMTQSPSSLTVTAGEKVTMSCKSSQSLLNSGNQKNYLTWYQQKPGQPPKLLIYWASTRESGVPDRFTGSGSGTDFTLTISSVQAEDLAVYYCQNDYYYPLTFGSGTKLEIK
notes: also called chimeric 59A9
binding result [1]: no binding | EC50 [2]: 1.35 µg/mL | binding percentage vs wild-type CLDN18.2 [3]: 100% | binding percentage vs wild-type CLDN18.2 [4]: 90.4% | binding percentage vs wild-type CLDN18.2 [5]: 92.7% | binding percentage vs wild-type CLDN18.2 [6]: 90% | binding percentage vs wild-type CLDN18.2 [7]: 65% | binding percentage vs wild-type CLDN18.2 [8]: 87.5% | binding percentage vs wild-type CLDN18.2 [9]: 52.7% | binding percentage vs wild-type CLDN18.2 [10]: 85.5% | binding percentage vs wild-type CLDN18.2 [11]: 106% | binding percentage vs wild-type CLDN18.2 [12]: 100% | binding percentage vs wild-type CLDN18.2 [13]: 54.8% | binding percentage vs wild-type CLDN18.2 [14]: 75.4% | binding percentage vs wild-type CLDN18.2 [15]: 35.2% | binding percentage vs wild-type CLDN18.2 [16]: 99% | binding percentage vs wild-type CLDN18.2 [17]: 73.6%
